Measured values as given in article PMC4962319.

Biological target: TIA-1-GLuc1 (UniProt P31483)
Assay: split reporter (BiFC, NanoBiT); split Gaussia luciferase protein-fragment complementation assay (PCA); GLuc1 and GLuc2 fusions coexpressed in live HEK293T cells, luminescence read 48 h after transfection with native coelenterazine

Chain of UniProt P31483 (P31483 whole entry, the tested form may be a part): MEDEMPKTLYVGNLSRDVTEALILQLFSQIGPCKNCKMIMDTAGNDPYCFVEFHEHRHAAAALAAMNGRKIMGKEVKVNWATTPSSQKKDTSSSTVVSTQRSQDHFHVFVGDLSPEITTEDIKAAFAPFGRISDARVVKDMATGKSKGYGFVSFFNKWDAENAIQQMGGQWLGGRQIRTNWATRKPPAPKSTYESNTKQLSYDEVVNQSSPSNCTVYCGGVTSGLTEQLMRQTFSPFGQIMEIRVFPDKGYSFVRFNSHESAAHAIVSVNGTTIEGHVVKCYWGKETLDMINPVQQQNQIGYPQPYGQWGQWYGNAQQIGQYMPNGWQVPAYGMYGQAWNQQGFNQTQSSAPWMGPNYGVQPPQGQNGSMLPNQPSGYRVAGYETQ

fold of PCA interaction signal over wildtype Tau: > 6 fold
Substance: TauE14-GLuc2 (from UniProt P10636-6 1-383) (natural protein)
